10 molecules from patent US7183387 (Genentech, dated 2007) can be followed below.

Test [1] concerns the target T1, human FcγRIIA-Arg131 α subunit extracellular domain-His6-GST fusion (human, UniProt P12318 34-217).
T1 construct: extracellular domain; also called FcγRIIA-R131; not shown: glutathione S transferase (GST)
T1 sequence: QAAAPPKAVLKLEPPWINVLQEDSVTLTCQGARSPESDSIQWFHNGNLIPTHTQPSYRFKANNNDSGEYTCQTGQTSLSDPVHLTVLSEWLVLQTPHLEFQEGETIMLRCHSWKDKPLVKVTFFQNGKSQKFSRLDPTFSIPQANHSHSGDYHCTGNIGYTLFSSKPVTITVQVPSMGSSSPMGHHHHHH
In words: hexamer ELISA. For orientation: An ELISA detects its analyte on a solid surface through an enzyme-linked reagent.

The target in test [2] is T2, human FcγRIIB α subunit extracellular domain-His6-GST fusion (human, UniProt P31994 43-217).
T2 construct: extracellular domain; also called CD32; not shown: glutathione S transferase (GST)
T2 sequence: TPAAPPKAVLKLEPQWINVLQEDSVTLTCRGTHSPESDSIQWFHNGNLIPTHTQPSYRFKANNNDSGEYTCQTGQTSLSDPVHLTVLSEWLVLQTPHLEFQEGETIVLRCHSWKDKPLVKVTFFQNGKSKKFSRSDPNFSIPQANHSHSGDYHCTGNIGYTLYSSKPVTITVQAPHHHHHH
In words: hexamer ELISA.

For test [3], the target named is T3, human FcγRIIIA-Phe158 α subunit extracellular domain-His6-GST fusion (human, UniProt P08637 17-208).
T3 construct: extracellular domain; also called FcγRIIIA-F158; CD16; not shown: glutathione S transferase (GST)
T3 sequence (P08637 other isoform, or with tags, fused parts or gaps): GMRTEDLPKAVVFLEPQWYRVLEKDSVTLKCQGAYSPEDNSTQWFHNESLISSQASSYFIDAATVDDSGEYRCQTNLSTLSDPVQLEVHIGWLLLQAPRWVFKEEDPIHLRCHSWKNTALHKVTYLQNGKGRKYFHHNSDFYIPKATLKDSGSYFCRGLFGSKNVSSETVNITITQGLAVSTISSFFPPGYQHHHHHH
The test is described as follows: hexamer ELISA.

The target of test [4] is T4, human FcγRIIA-R131 α subunit extracellular domain-6His-GST fusion (human, UniProt P12318 34-217).
T4 construct: also called FcγRIIA-Arg131; not shown: glutathione S-transferase (GST)
T4 sequence: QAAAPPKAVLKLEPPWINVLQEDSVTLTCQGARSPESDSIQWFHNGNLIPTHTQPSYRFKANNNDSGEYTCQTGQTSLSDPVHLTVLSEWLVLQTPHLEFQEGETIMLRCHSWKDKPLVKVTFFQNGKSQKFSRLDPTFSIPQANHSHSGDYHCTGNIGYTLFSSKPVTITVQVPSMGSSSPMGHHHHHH
The test is described as follows: ELISA, IgG:IgE hexamers on receptor-GST.

For test [5], the target named is T5, human FcγRIIB α subunit extracellular domain-6His-GST fusion (human, UniProt P31994 43-217).
T5 construct: not shown: glutathione S-transferase (GST)
T5 sequence: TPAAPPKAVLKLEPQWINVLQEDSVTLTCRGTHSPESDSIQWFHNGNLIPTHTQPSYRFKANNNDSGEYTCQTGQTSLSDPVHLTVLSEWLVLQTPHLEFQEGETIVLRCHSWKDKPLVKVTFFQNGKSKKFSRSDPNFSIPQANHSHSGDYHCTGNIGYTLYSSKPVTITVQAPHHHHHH
In words: ELISA, IgG:IgE hexamers on receptor-GST.

In test [6] the target is T6, human FcγRIIIA-F158 α subunit extracellular domain-6His-GST fusion (human, UniProt P08637 17-208).
T6 construct: also called FcγRIIIA-Phe158; not shown: glutathione S-transferase (GST)
T6 sequence (P08637 other isoform, or with tags, fused parts or gaps, form in doubt): as the sequence (P08637 other isoform, or with tags, fused parts or gaps) above
The test is described as follows: ELISA, IgG:IgE hexamers on receptor-GST.

For a further test, the target named is T7, human FcRn, biotinylated (human, UniProt P55899 24-297; P61769 21-119, biotinylated (biotin-X-NHS)).
T7 construct: Captured on streptavidin plates; IgG added at pH 6.0; also called neonatal Fc receptor
T7 sequence (P55899 24-297 limits assumed, chain 1 of 2): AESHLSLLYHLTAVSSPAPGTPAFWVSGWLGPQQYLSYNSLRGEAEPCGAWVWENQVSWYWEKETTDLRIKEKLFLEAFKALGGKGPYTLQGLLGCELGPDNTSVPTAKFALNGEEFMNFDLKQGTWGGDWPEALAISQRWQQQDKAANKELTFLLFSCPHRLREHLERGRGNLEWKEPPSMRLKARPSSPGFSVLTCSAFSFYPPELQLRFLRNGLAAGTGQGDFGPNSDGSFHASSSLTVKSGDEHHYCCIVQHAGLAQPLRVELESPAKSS
T7 sequence (P61769 21-119 limits assumed, chain 2 of 2): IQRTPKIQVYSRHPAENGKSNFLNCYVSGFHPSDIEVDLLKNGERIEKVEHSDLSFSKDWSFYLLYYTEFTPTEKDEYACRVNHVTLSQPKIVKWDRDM
The test is described as follows: ELISA, biotin-FcRn on streptavidin, pH 6.0.

In test [7] the target is T1, human FcγRIIA-Arg131 α subunit …. In words: hexamer ELISA. The source holds these as a separate data set.
Test [8] deals with T2, human FcγRIIB α subunit extracellular …. The test is described as follows: hexamer ELISA. The source holds these as a separate data set.
Test [9] deals with T3, human FcγRIIIA-Phe158 α subunit …. In words: hexamer ELISA. This is another data set of the same source.
Test [10] addresses T8, human neonatal Fc receptor (FcRn), biotinylated (human, UniProt P55899 24-297; P61769 21-119, biotinylated (biotin-X-NHS)).
T8 construct: captured on streptavidin plates
The test is described as follows: FcRn ELISA, pH 6.0.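 Also: Streptavidin-captured FcRn plates, IgG variants titrated 2 h at pH 6.0, peroxidase anti-human IgG read at 450 nm, variant over standard concentration at the standard curve mid-point absorbance.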
Procedure: (§1) FcRn Binding ELISA: For measuring FcRn binding activity of IgG variants, ELISA plates were coated with 2 µg/ml streptavidin (Zymed, South San Francisco) in 50 mM carbonate buffer, pH 9.6, at 4° C. overnight and blocked with PBS-0.5% BSA, pH 7.2 at room temperature for one hour. Biotinylated FcRn (prepared using biotin-X-NHS from Research Organics, Cleveland, Ohio and used at 1–2 µg/ml) in PBS-0.5% BSA, 0.05% polysorbate 20, pH 7.2, was added to the plate and incubated for one hour. Two fold serial dilutions of IgG standard (1.6–100 ng/ml) or variants in PBS-0.5% BSA, 0.05% polysorbate 20, pH 6.0, were added to the plate and incubated for two hours. Bound IgG was detected using peroxidase labeled goat F(ab')_2 anti-human IgG F(ab')_2 in the above pH 6.0 buffer (Jackson ImmunoResearch, West Grove, Pa.) followed by 3,3',5,5'-tetramethyl benzidine (Kirgaard & Perry Laboratories) as the substrate. Plates were washed between steps with PBS-0.05% TWEEN 20® at either pH 7.2 or 6.0. Absorbance was read at 450 nm on a Vmax plate reader (Molecular Devices, Menlo Park, Calif.). Titration curves were fit with a four-parameter nonlinear regression curve-fitting program (KaleidaGraph, Synergy software, Reading, Pa.). Concentrations of IgG variants corresponding to the mid-point absorbance of the titration curve of the standard were calculated and then divided by the concentration of the standard corresponding to the mid-point absorbance of the standard titration curve.

Test [11] concerns the target T9, human FcγRIA α subunit extracellular domain-His6-GST fusion (human, UniProt P12314 16-292).
T9 construct: extracellular domain; also called GST-FcγRIA; CD64; not shown: glutathione S transferase (GST)
The test is described as follows: FcγRI ELISA, E27 background.

Test [12] addresses T1, human FcγRIIA-Arg131 α subunit …. In words: immune complex ELISA, E27 background.
For test [13], the target named is T2, human FcγRIIB α subunit extracellular …. The test is described as follows: immune complex ELISA, E27 background.
Test [14] deals with T3, human FcγRIIIA-Phe158 α subunit …. In words: immune complex ELISA, E27 background.
Test [15] concerns the target T9, human FcγRIA α subunit extracellular …. In words: FcγRI ELISA and THP-1 cells, averaged.

T9 sequence (P12314 other isoform, or with tags, fused parts or gaps): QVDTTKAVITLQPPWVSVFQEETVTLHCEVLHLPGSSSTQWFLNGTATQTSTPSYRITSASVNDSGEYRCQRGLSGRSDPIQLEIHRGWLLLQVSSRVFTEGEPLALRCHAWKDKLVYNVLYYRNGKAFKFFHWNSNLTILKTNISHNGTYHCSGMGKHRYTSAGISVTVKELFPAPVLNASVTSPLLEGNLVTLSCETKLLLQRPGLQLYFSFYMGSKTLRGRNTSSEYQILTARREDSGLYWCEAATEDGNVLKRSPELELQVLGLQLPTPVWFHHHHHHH
T8 sequence (P55899 24-297 limits assumed, chain 1 of 2): as the sequence (P55899 24-297 limits assumed, chain 1 of 2) above
T8 sequence (P61769 21-119 limits assumed, chain 2 of 2): as the sequence (P61769 21-119 limits assumed, chain 2 of 2) above
Procedure for human FcRn, biotinylated: as §1

B1: anti-IgE E27 IgG1 Asp265Asn (antibody)
heavy: not shown
light: DIQLTQSPSSLSASVGDRVTITCRASKPVDGEGDSYLNWYQQKPGKAPKLLIYAASYLESGVPSRFSGSGSGTDFTLTISSLQPEDFATYYCQQSHEDPYTFGQGTKVEIKRTVAAPSVFIFPPSDEQLKSGTASVVCLLNNFYPREAKVQWKVDNALQSGNSQESVTEQDSKDSTYSLSSTLTLSKADYEKHKVYACEVTHQGLSSPVTKSFNRGEC
On to B1, for which the binding result in test [1], in test [2] and in test [3] was “no binding” throughout.

B2: E27 IgG1 variant E380(405)A/N434(465)A (antibody)
heavy: not shown
light: DIQLTQSPSSLSASVGDRVTITCRASKPVDGEGDSYLNWYQQKPGKAPKLLIYAASYLESGVPSRFSGSGSGTDFTLTISSLQPEDFATYYCQQSHEDPYTFGQGTKVEIKRTVAAPSVFIFPPSDEQLKSGTASVVCLLNNFYPREAKVQWKVDNALQSGNSQESVTEQDSKDSTYSLSSTLTLSKADYEKHKVYACEVTHQGLSSPVTKSFNRGEC
notes: also called IG2 269
Turning to B2, the “ratio to native IgG1” value in [4] came out at 1.02; in test [5] it was 1.05; in test [6] it was 1.02; with human FcRn, biotinylated, 8.

B3: E27 IgG1 variant E380(405)A/L309(328)A (antibody)
heavy: not shown
light: DIQLTQSPSSLSASVGDRVTITCRASKPVDGEGDSYLNWYQQKPGKAPKLLIYAASYLESGVPSRFSGSGSGTDFTLTISSLQPEDFATYYCQQSHEDPYTFGQGTKVEIKRTVAAPSVFIFPPSDEQLKSGTASVVCLLNNFYPREAKVQWKVDNALQSGNSQESVTEQDSKDSTYSLSSTLTLSKADYEKHKVYACEVTHQGLSSPVTKSFNRGEC
notes: also called IG2 271
B3: the “ratio to native IgG1” value stood at 0.98 in test [4]; 1.04 in test [5]; 0.92 in test [6]; 0.9 in the test with human FcRn, biotinylated.

B4: anti-IgE E27 IgG1 Lys322Ala (antibody)
heavy: not shown
light: DIQLTQSPSSLSASVGDRVTITCRASKPVDGEGDSYLNWYQQKPGKAPKLLIYAASYLESGVPSRFSGSGSGTDFTLTISSLQPEDFATYYCQQSHEDPYTFGQGTKVEIKRTVAAPSVFIFPPSDEQLKSGTASVVCLLNNFYPREAKVQWKVDNALQSGNSQESVTEQDSKDSTYSLSSTLTLSKADYEKHKVYACEVTHQGLSSPVTKSFNRGEC
notes: also called K322A
In the case of B4, the “ratio to native IgG1” value in test [7] was 1.17 ratio; in test [8], 1.28 ratio; in [9] it was 0.62 ratio; in test [10], 0.98 ratio; in [15], 0.94 ratio. Further, the “percentage of the wild type” value in test [11] came out at 90%; in [12], 109%; in [13] it was 101%; in test [14], 90%.

B5: anti-IgE E27 IgG1 Lys414Ala (antibody)
heavy: not shown
light: DIQLTQSPSSLSASVGDRVTITCRASKPVDGEGDSYLNWYQQKPGKAPKLLIYAASYLESGVPSRFSGSGSGTDFTLTISSLQPEDFATYYCQQSHEDPYTFGQGTKVEIKRTVAAPSVFIFPPSDEQLKSGTASVVCLLNNFYPREAKVQWKVDNALQSGNSQESVTEQDSKDSTYSLSSTLTLSKADYEKHKVYACEVTHQGLSSPVTKSFNRGEC
For B5, the “reduction in binding against native IgG1” value in [1] and in test [2] was 40% each time. The “ratio to native IgG1” value came to 0.64 ratio in [7]; 0.58 ratio in test [8]; 0.82 ratio in test [9]; 1.02 ratio in test [10]; 1 ratio in test [15].

B6: anti-IgE E27 IgG1 Asp270Asn (antibody)
heavy: not shown
light: DIQLTQSPSSLSASVGDRVTITCRASKPVDGEGDSYLNWYQQKPGKAPKLLIYAASYLESGVPSRFSGSGSGTDFTLTISSLQPEDFATYYCQQSHEDPYTFGQGTKVEIKRTVAAPSVFIFPPSDEQLKSGTASVVCLLNNFYPREAKVQWKVDNALQSGNSQESVTEQDSKDSTYSLSSTLTLSKADYEKHKVYACEVTHQGLSSPVTKSFNRGEC
As to B6, the binding result in test [1], in test [2] and in test [3] was “no binding” each time.

B7: E27 IgG1 variant E380(405)A/N434(465)A/T307(326)A (antibody)
heavy: EVQLVESGGGLVQPGGSLRLSCAVSGYSITSGYSWNWIRQAPGKGLEWVASIKYSGETKYNPSVKGRITISRDDSKNTFYLQMNSLRAEDTAVYYCARGSHYFGHWHFAVWGQGTLVTVSSASTKGPSVFPLAPSSKSTSGGTAALGCLVKDYFPEPVTVSWNSGALTSGVHTFPAVLQSSGLYSLSSVVTVPSSSLGTQTYICNVNHKPSNTKVDKKVEPKSCDKTHTCPPCPAPELLGGPSVFLFPPKPKDTLMISRTPEVTCVVVDVSHEDPEVKFNWYVDGVEVHNAKTKPREEQYNSTYRVVSVLAVLHQDWLNGKEYKCKVSNKALPAPIEKTISKAKGQPREPQVYTLPPSREEMTKNQVSLTCLVKGFYPSDIAVAWESNGQPENNYKTTPPVLDSDGSFFLYSKLTVDKSRWQQGNVFSCSVMHEALHAHYTQKSLSLSPGK
light: DIQLTQSPSSLSASVGDRVTITCRASKPVDGEGDSYLNWYQQKPGKAPKLLIYAASYLESGVPSRFSGSGSGTDFTLTISSLQPEDFATYYCQQSHEDPYTFGQGTKVEIKRTVAAPSVFIFPPSDEQLKSGTASVVCLLNNFYPREAKVQWKVDNALQSGNSQESVTEQDSKDSTYSLSSTLTLSKADYEKHKVYACEVTHQGLSSPVTKSFNRGEC
notes: also called IG2 270
Consider B7, for which the “ratio to native IgG1” value in test [4] is 0.99; in test [5] it was 0.99; in test [6], 0.96; with human FcRn, biotinylated, 11.8.

B8: anti-IgE E27 IgG1 Asp265Glu (antibody)
heavy: not shown
light: DIQLTQSPSSLSASVGDRVTITCRASKPVDGEGDSYLNWYQQKPGKAPKLLIYAASYLESGVPSRFSGSGSGTDFTLTISSLQPEDFATYYCQQSHEDPYTFGQGTKVEIKRTVAAPSVFIFPPSDEQLKSGTASVVCLLNNFYPREAKVQWKVDNALQSGNSQESVTEQDSKDSTYSLSSTLTLSKADYEKHKVYACEVTHQGLSSPVTKSFNRGEC
For B8, the binding result in test [1], in test [2] and in [3] was “no binding” throughout.

B9: anti-IgE E27 IgG1 Pro331Ala (antibody)
heavy: not shown
light: DIQLTQSPSSLSASVGDRVTITCRASKPVDGEGDSYLNWYQQKPGKAPKLLIYAASYLESGVPSRFSGSGSGTDFTLTISSLQPEDFATYYCQQSHEDPYTFGQGTKVEIKRTVAAPSVFIFPPSDEQLKSGTASVVCLLNNFYPREAKVQWKVDNALQSGNSQESVTEQDSKDSTYSLSSTLTLSKADYEKHKVYACEVTHQGLSSPVTKSFNRGEC
notes: also called P331A
For B9, the “ratio to native IgG1” value in test [7] is 1.29 ratio; in [8], 1.34 ratio; in test [9], 1.08 ratio; in test [10], 0.85 ratio; in test [15], 1.01 ratio. Besides, the “percentage of the wild type” value in [11] is 74%; in test [12], 86%; in [13], 58%; in test [14] it was 73%.

B10: anti-IgE E27 IgG1 Ser298Asn (antibody)
heavy: not shown
light: DIQLTQSPSSLSASVGDRVTITCRASKPVDGEGDSYLNWYQQKPGKAPKLLIYAASYLESGVPSRFSGSGSGTDFTLTISSLQPEDFATYYCQQSHEDPYTFGQGTKVEIKRTVAAPSVFIFPPSDEQLKSGTASVVCLLNNFYPREAKVQWKVDNALQSGNSQESVTEQDSKDSTYSLSSTLTLSKADYEKHKVYACEVTHQGLSSPVTKSFNRGEC
For B10, the binding result in [1], in test [2] and in [3] was “no binding” throughout.
